Results published in patent US10731195B2, “Methods for the enzymatic modification of steviol glycosides, modified steviol glycosides obtainable thereby, and the use thereof as sweeteners” (Rijksuniversiteit Groningen, priority 2015, dated 2020).
Where two headings read alike, the source gives them in different places. One block for each molecule: values may come before it.

Experiments:
[1] = cited from earlier work
[2] = Isolation and structural analysis (NMR, methylation analysis) of α-glucosylated Rebaudioside A products; type: biochemical; settings: 10 U/mL enzyme, 50 mM Rebaudioside A, 2 x 1000 mM sucrose, 24 hours
Method: For quantitative synthesis of α-glucosylated Rebaudioside A products using GTF180-ΔN and its derived mutants, incubations were performed in 5 mL 25 mM sodium acetate (pH 4.7), 1 mM CaCl2, 50 mM steviol glycoside with two batches of 1,000 mM equivalent of sucrose donor (t=0 and 3 h) to a total of 2,000 mM sucrose, using 10 U/mL enzyme at 37° C. for 24 hours. Products were purified from the incubation mixture by solid phase extraction using Strata-X 33u Polymeric Reversed Phase columns (Phenomenex). Products were separated on a Luna 10 μm NH2 semi-preparative chromatography column (250 mm×10 mm, Phenomenex) and were manually collected at a flow-rate of 4.6 mL/min, starting with a 2 min isocratic step of 80% solvent A followed by a linear gradient of 80 to 50% solvent A over 38 min (solvent A=acetonitrile; solvent B=0.025% acetic acid). The solvent of the collected fractions was evaporated under a stream of nitrogen gas and the dried materials were dissolved in deionized water.
Resolution-enhanced 1D/2D 500-MHz ^1H NMR spectra were recorded in D2O on a Bruker DRX-500 spectrometer (Bijvoet Center, Department of NMR Spectroscopy, Utrecht University) at a probe temperature of 334K. Data acquisition and processing were done with Bruker Topspin 2.1. Prior to analysis, samples were exchanged twice in D2O (99.9 atom % D, Cambridge Isotope Laboratories, Inc., Andover, Mass.) with intermediate lyophilization, and then dissolved in 0.6 mL D2O. […] The 2D TOCSY spectra were recorded using an MLEV-17 (composite pulse devised by Levitt et al (1982)) mixing sequence with spin-lock times of 40-200 ms. The 2D ROESY spectra were recorded using standard Bruker XWINNMR software with mixing time of 200 ms. […] Natural abundance 2D ^13C-^1H HSQC experiments (^1H frequency 500.0821 MHz, ^13C frequency 125.7552 MHz) were recorded without decoupling during acquisition of the ^1H FID. […]

[3] = Time course of Rebaudioside A utilization and RebAG1 formation (NP-HPLC); type: biochemical; settings: 1000 mM sucrose, 10 U/mL enzyme
Method: (§1) Incubation reactions were performed in 25 mM sodium acetate (pH 4.7), 1 mM CaCl2, 50 to 1,000 mM sucrose, 50-100 mM steviol glycoside, and 2-30 U/mL purified GTF180-ΔN enzyme or GTF180-ΔN mutant enzyme at 37° C. for 15 min to 24 hours. Reactions were stopped by heat inactivation (100° C. for 15 min). From the inactivated samples 250 uL was mixed with 1000 ul of 10 mM catechol (internal standard) and subsequently purified by solid phase extraction using Strata-X 33u Polymeric Reversed Phase columns (Phenomenex). For HPLC analysis 20 μL of the purified sample was injected on a Luna 10 μm NH2 chromatography column (250 mm×4.6 mm; Phenomenex). Reaction components were separated at a flow-rate of 1 mL/min under gradient elution conditions, starting with a 2 min isocratic step of 70% solvent A followed by a linear gradient from 70 to 55% solvent A over 9 min (solvent A=acetonitrile; solvent B=0.025% acetic acid). Rebaudioside A and the mono-α-glucosylated Rebaudioside A product concentrations were determined with NP-HPLC, using their corresponding calibration curves ranging from 1.56 to 50 mM. All data were normalized with catechol as internal standard. The standard deviation of the response was less than 5%. […]

[4] = Polymerization (oligosaccharide and glucan formation from sucrose) activity; type: biochemical; settings: data not shown
Method: Over a hundred glucan and fructansucrase wild type and mutant enzymes, mostly from Lactobacillus reuteri, were screened for Rebaudioside A α-glucosylation. For this, enzymes were incubated in 50 mM Rebaudioside A (FIG. 1) and 1000 mM sucrose for 3 hours. […] This is a clear advantage during downstream processing, the purification of the α-glucosylated Rebaudioside A products from mono- and disaccharides, oligosaccharides and glucans. By eliminating α-glucan synthesis, the most important side reaction, higher glycosylation yields were obtained for Rebaudioside A. At lower sucrose concentration (200 mM), these mutants had similar or even higher transglucosylating activity with Rebaudioside A than GTF180-ΔN and mutants S1137Y and Q1140E (data not shown).

[5] = Screening glucan and fructansucrase enzymes for α-glucosylation of Rebaudioside A; type: biochemical; settings: compared to GTF180-ΔN where comparative
Method: as §1

[6] = in water and in carbonated beverage base

Molecule: C=C1C[C@@]23CC[C@H]4[C@@](C)(CCC[C@@]4(C)C(=O)O[C@@H]4O[C@H](CO)[C@@H](O)[C@H](O[C@@H]5O[C@H](CO)[C@@H](O)[C@H](O)[C@H]5O)[C@H]4O[C@@H]4O[C@H](CO)[C@@H](O)[C@H](O)[C@H]4O)[C@@H]2CC[C@]1(O[C@@H]1O[C@H](CO)[C@@H](O)[C@H](O[C@@H]2O[C@H](CO)[C@@H](O)[C@H](O)[C@H]2O)[C@H]1O[C@@H]1O[C@H](CO)[C@@H](O)[C@H](O)[C@H]1O)C3 [Rebaudioside M]
bitterness compared to Rebaudioside A ([1]; in acidified water): reduced bitterness | sweetness compared to Rebaudioside A ([1]; in acidified water): higher sweetness | bitterness compared to Rebaudioside A ([1]; in water solution): reduced bitterness

Molecule: C=C1C[C@@]23CC[C@H]4[C@@](C)(CCC[C@@]4(C)C(=O)O[C@@H]4O[C@H](CO)[C@@H](O)[C@H](O)[C@H]4O[C@@H]4O[C@H](CO)[C@@H](O)[C@H](O)[C@H]4O)[C@@H]2CC[C@]1(O[C@@H]1O[C@H](CO)[C@@H](O)[C@H](O[C@@H]2O[C@H](CO)[C@@H](O)[C@H](O)[C@H]2O)[C@H]1O[C@@H]1O[C@H](CO)[C@@H](O)[C@H](O)[C@H]1O)C3 [Rebaudioside D]
bitterness compared to Rebaudioside A [1, 6]: decreased bitterness | sweetness compared to Rebaudioside A [1, 6]: increased sweetness

B1: GTF180-ΔN: N-terminal truncated GTF180 (AY697430) of Lactobacillus reuteri 180; Met-Gly-742-1772-His6 (protein, listed as Lactobacillus reuteri)
chain: MGINGQQYYIDPTTGQPRKNFLLQNGNDWIYFDKDTGAGTNALKLQFDKGTISADEQYRRGNEAYSYDDKSIENVNGYLTADTWYRPKQILKDGTTWTDSKETDMRPILMVWWPNTVTQAYYLNYMKQYGNLLPASLPSFSTDADSAELNHYSELVQQNIEKRISETGSTDWLRTLMHEFVTKNSMWNKDSENVDYGGLQLQGGFLKYVNSDLTKYANSDWRLMNRTATNIDGKNYGGAEFLLANDIDNSNPVVQAEELNWLYYLMNFGTITGNNPEANFDGIRVDAVDNVDVDLLSIARDYFNAAYNMEQSDASANKHINILEDWGWDDPAYVNKIGNPQLTMDDRLRNAIMDTLSGAPDKNQALNKLITQSLVNRANDNTENAVIPSYNFVRAHDSNAQDQIRQAIQAATGKPYGEFNLDDEKKGMEAYINDQNSTNKKWNLYNMPSAYTILLTNKDSVPRVYYGDLYQDGGQYMEHKTRYFDTITNLLKTRVKYVAGGQTMSVDKNGILTNVRFGKGAMNATDTGTDETRTEGIGVVISNNTNLKLNDGESVVLHMGAAHKNQKYRAVILTTEDGVKNYTNDTDAPVAYTDANGDLHFTNTNLDGQQYTAVRGYANPDVTGYLAVWVPAGAADDQDARTAPSDEAHTTKTAYRSNAALDSNVIYEGFSNFIYWPTTESERTNVRIAQNADLFKSWGITTFELAPQYNSSKDGTFLDSIIDNGYAFTDRYDLGMSTPNKYGSDEDLRNALQALHKAGLQAIADWVPDQIYNLPGKEAVTVTRSDDHGTTWEVSPIKNVVYITNTIGGGEYQKKYGGEFLDTLQKEYPQLFSQVYPVTQTTIDPSVKIKEWSAKYFNGTNILHRGAGYVLRSNDGKYYNLGTSTQQFLPSQLSVQDNEGYGFVKEGNNYHYYDENKQMVKDAFIQDSVGNWYYLDKNGNMVANQSPVEISSNGASGTYLFLNNGTSFRSGLVKTDAGTYYYDGDGRMVRNQTVSDGAMTYVLDENGKLVSESFDSSATEAHPLKPGDLNGQK
share of di-glucosylated Rebaudioside A product elongated with an (α1→3)-linked glucose [2]: ~75% | share of di-glucosylated Rebaudioside A product elongated with another (α1→6)-linked glucose [2]: ~25% | share of mono-α-glucosylated product with (α1→6)-linked glucose at the C-19 β-linked glucose [2]: 100% | Rebaudioside A conversion ([3]; 50 mM Rebaudioside A): 55% | RebAG1 formed from 50 mM Rebaudioside A [3]: ~13 mM

α-glucosylation / transglucosylating activity towards Rebaudioside A (in words) [5]: able to α-glucosylate Rebaudioside A
B2: GTF180-ΔN-XM2: single amino acid mutant (W1065L) of GTF180-ΔN (protein, listed as Lactobacillus reuteri)
chain: MGINGQQYYIDPTTGQPRKNFLLQNGNDWIYFDKDTGAGTNALKLQFDKGTISADEQYRRGNEAYSYDDKSIENVNGYLTADTWYRPKQILKDGTTWTDSKETDMRPILMVWWPNTVTQAYYLNYMKQYGNLLPASLPSFSTDADSAELNHYSELVQQNIEKRISETGSTDWLRTLMHEFVTKNSMWNKDSENVDYGGLQLQGGFLKYVNSDLTKYANSDWRLMNRTATNIDGKNYGGAEFLLANDIDNSNPVVQAEELNWLYYLMNFGTITGNNPEANFDGIRVDAVDNVDVDLLSIARDYFNAAYNMEQSDASANKHINILEDLGWDDPAYVNKIGNPQLTMDDRLRNAIMDTLSGAPDKNQALNKLITQSLVNRANDNTENAVIPSYNFVRAHDSNAQDQIRQAIQAATGKPYGEFNLDDEKKGMEAYINDQNSTNKKWNLYNMPSAYTILLTNKDSVPRVYYGDLYQDGGQYMEHKTRYFDTITNLLKTRVKYVAGGQTMSVDKNGILTNVRFGKGAMNATDTGTDETRTEGIGVVISNNTNLKLNDGESVVLHMGAAHKNQKYRAVILTTEDGVKNYTNDTDAPVAYTDANGDLHFTNTNLDGQQYTAVRGYANPDVTGYLAVWVPAGAADDQDARTAPSDEAHTTKTAYRSNAALDSNVIYEGFSNFIYWPTTESERTNVRIAQNADLFKSWGITTFELAPQYNSSKDGTFLDSIIDNGYAFTDRYDLGMSTPNKYGSDEDLRNALQALHKAGLQAIADWVPDQIYNLPGKEAVTVTRSDDHGTTWEVSPIKNVVYITNTIGGGEYQKKYGGEFLDTLQKEYPQLFSQVYPVTQTTIDPSVKIKEWSAKYFNGTNILHRGAGYVLRSNDGKYYNLGTSTQQFLPSQLSVQDNEGYGFVKEGNNYHYYDENKQMVKDAFIQDSVGNWYYLDKNGNMVANQSPVEISSNGASGTYLFLNNGTSFRSGLVKTDAGTYYYDGDGRMVRNQTVSDGAMTYVLDENGKLVSESFDSSATEAHPLKPGDLNGQK
polymerization (oligosaccharide and glucan formation) activity [4]: almost no polymerization
